Legend:
[1] = target: human TIM-3 extracellular domain protein with hFc tag (hTIM-3-hFc) (human) (UniProt Q8TDQ0); assay: ELISA, coated human TIM-3 ECD protein, 0 nM antibody
[2] = target: human TIM-3 extracellular domain protein with hFc tag (hTIM-3-hFc) (human) (UniProt Q8TDQ0); assay: FACS, blocking of hTIM-3-hFc binding to phosphatidylserine on apoptotic Jurkat cells, 7.407 nM antibody
[3] = target: human TIM-3 extracellular domain protein with hFc tag (hTIM-3-hFc) (human) (UniProt Q8TDQ0); assay: FACS, blocking of hTIM-3-hFc binding to phosphatidylserine on apoptotic Jurkat cells, 200 nM antibody
[4] = target: human TIM-3 extracellular domain protein with hFc tag (hTIM-3-hFc) (human) (UniProt Q8TDQ0); assay: FACS, blocking of hTIM-3-hFc binding to phosphatidylserine on apoptotic Jurkat cells, 0 nM antibody
[5] = target: murine TIM-3 extracellular domain protein with hFc tag (mTIM-3-hFc) (mouse) (UniProt Q8VIM0); assay: ELISA, coated mouse TIM-3 ECD protein, 6.6667 nM antibody
Chain of murine TIM-3 extracellular domain protein with hFc tag (mTIM-3-hFc) (mouse) (Q8VIM0 other isoform, or with tags, fused parts or gaps): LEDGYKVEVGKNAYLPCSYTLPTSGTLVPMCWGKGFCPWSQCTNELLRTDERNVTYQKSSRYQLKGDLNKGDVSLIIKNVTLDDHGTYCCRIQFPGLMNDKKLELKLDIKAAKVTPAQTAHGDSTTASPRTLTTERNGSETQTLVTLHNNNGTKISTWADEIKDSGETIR

[6] = target: human TIM-3 extracellular domain protein with hFc tag (hTIM-3-hFc) (human) (UniProt Q8TDQ0); assay: ELISA, coated human TIM-3 ECD protein, 6.6667 nM antibody
[7] = target: murine TIM-3 extracellular domain protein with hFc tag (mTIM-3-hFc) (mouse) (UniProt Q8VIM0); assay: ELISA, coated mouse TIM-3 ECD protein, 0.6667 nM antibody
[8] = target: human TIM-3 on CHOK1 stable cell line (CHOK1-hTIM-3) (human) (UniProt Q8TDQ0); assay: FACS, CHOK1-hTIM-3 cells, 40 nM antibody
Chain of human TIM-3 on CHOK1 stable cell line (CHOK1-hTIM-3) (human) (Q8TDQ0 22-301 limits assumed): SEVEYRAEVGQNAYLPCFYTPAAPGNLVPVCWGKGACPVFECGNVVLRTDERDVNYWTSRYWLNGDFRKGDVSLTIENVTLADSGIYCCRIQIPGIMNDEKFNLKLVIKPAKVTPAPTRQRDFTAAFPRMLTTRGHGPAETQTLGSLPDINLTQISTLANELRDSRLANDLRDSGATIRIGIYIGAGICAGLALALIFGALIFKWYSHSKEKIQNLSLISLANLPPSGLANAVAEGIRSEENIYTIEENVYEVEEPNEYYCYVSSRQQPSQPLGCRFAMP

[9] = target: human TIM-3 extracellular domain protein with hFc tag (hTIM-3-hFc) (human) (UniProt Q8TDQ0); assay: ELISA, coated human TIM-3 ECD protein, 0.0007 nM antibody
[10] = target: human TIM-3 on CHOK1 stable cell line (CHOK1-hTIM-3) (human) (UniProt Q8TDQ0); assay: FACS, CHOK1-hTIM-3 cells, 0 nM antibody
[11] = target: monkey TIM-3 extracellular domain protein with hFc tag (cTIM-3-hFc) (monkey); assay: ELISA, coated monkey TIM-3 ECD protein, 0.0067 nM antibody
Chain of monkey TIM-3 extracellular domain protein with hFc tag (cTIM-3-hFc) (monkey) (chain, as listed by the source): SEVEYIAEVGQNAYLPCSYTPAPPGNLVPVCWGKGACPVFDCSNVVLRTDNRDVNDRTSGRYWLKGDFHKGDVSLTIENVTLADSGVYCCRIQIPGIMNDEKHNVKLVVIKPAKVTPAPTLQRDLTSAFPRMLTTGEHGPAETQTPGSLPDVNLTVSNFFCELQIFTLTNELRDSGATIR

[12] = target: monkey TIM-3 on CHOK1 stable cell line (CHOK1-cTIM-3) (monkey); assay: FACS, CHOK1-cTIM-3 cells, 0 nM antibody
Chain of monkey TIM-3 on CHOK1 stable cell line (CHOK1-cTIM-3) (monkey) (chain, as listed by the source limits assumed): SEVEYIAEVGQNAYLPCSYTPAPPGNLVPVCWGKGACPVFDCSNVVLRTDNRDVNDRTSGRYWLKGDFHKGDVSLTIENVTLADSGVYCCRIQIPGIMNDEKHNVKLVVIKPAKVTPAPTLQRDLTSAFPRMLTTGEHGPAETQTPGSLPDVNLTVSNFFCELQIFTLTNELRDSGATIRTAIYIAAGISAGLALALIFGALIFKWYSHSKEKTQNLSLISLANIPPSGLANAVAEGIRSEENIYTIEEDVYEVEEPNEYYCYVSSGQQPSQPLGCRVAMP

[13] = target: monkey TIM-3 extracellular domain protein with hFc tag (cTIM-3-hFc) (monkey); assay: ELISA, coated monkey TIM-3 ECD protein, 0.0001 nM antibody
[14] = target: human TIM-3 extracellular domain protein with hFc tag (hTIM-3-hFc) (human) (UniProt Q8TDQ0); assay: FACS, blocking of hTIM-3-hFc binding to phosphatidylserine on apoptotic Jurkat cells, 22.222 nM antibody
[15] = target: murine TIM-3 extracellular domain protein with hFc tag (mTIM-3-hFc) (mouse) (UniProt Q8VIM0); assay: ELISA, coated mouse TIM-3 ECD protein, 0 nM antibody
[16] = target: murine TIM-3 extracellular domain protein with hFc tag (mTIM-3-hFc) (mouse) (UniProt Q8VIM0); assay: ELISA, coated mouse TIM-3 ECD protein, 0.0001 nM antibody
[17] = target: human TIM-3 extracellular domain protein with hFc tag (hTIM-3-hFc) (human) (UniProt Q8TDQ0); assay: ELISA, coated human TIM-3 ECD protein, 0.0067 nM antibody
[18] = target: monkey TIM-3 on CHOK1 stable cell line (CHOK1-cTIM-3) (monkey); assay: FACS, CHOK1-cTIM-3 cells, 8 nM antibody

Chain of human TIM-3 extracellular domain protein with hFc tag (hTIM-3-hFc) (human) (Q8TDQ0 22-200): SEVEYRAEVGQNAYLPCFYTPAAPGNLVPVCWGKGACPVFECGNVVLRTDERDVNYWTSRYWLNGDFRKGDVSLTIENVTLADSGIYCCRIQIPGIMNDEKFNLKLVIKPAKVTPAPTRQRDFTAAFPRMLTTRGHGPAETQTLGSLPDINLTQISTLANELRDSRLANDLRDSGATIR

Substance: human IgG control (antibody)
- OD450 [1]: 0.07
- Inhibition ratio (%) [2]: 0.5%
- Inhibition ratio (%) [3]: -7.8%
- Inhibition ratio (%) [4]: -2.5%
- OD450 [5]: 0.3
- OD450 [6]: 0.08
- OD450 [7]: 0.22
- Mean fluorescence intensity [8]: 5
- OD450 [9]: 0.07
- Mean fluorescence intensity [10]: 2.8
- OD450 [11]: 0.13
- Mean fluorescence intensity [12]: 2.9
- OD450 [13]: 0.13
- Inhibition ratio (%) [14]: -2.8%
- OD450 [15]: 0.23
- OD450 [16]: 0.22
- OD450 [17]: 0.07
- Mean fluorescence intensity [18]: 3.7
